Article PMC3919601

Target: 80S ribosomes from yeast cells expressing wild-type rpL10 (S. cerevisiae) (UniProt P41805)
Assay: steady-state binding of [32P]-Sdo1p; ribosomes held on cysteine-charged sulfolink resin, unbound Sdo1p in the flow-through counted; 2 pmol ribosomes with 0.25–32 pmol Sdo1p and 100 µg polyU in 50 mM Tris-(OAc)2 pH 7.5, 50 mM NH4(OAc)2, 10 mM Mg(OAc)2, 2 mM DTT, 50 µl, 30°C 20 min

Sequence of UniProt P41805 (P41805 whole entry, looked up): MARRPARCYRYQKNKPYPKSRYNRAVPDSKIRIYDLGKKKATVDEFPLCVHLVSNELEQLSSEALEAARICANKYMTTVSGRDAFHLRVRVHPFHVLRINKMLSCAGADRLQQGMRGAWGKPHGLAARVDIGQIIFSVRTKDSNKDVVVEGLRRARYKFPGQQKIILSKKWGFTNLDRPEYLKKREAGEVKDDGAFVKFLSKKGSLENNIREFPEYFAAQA

B1: Sdo1p with a C-terminal 6× histidine tag and the phosphorylatable kemptide (natural protein)
chain: MPINQPSGQIKLTNVSLVRLKKARKRFEVACYQNKVQDYRKGIEKDLDEVLQIHQVFMNVSKGLVANKEDLQKCFGTTNVDDVIEEIMHKGEIQLSEKERQLMLNKVNNEMLTIVSAKCINPVSKKRYPPTMIHKALQELKFSPVINKPAKLQALEAIKLLVSKQIIPIVRAKMKVKVAISEPSRQPELIEKISKLIASSPGESTKPELDPWTCTGLIDPVNYRDLMTLCDKKGTVQVLDMAVIDNTTHN
modifications: 32P-phosphate on the kemptide (labelled with PKA and [32P]-γ-ATP, 40–60% label incorporation)
- stoichiometry N: 1
